The source of these data is paper PMC11417369, “DNA sequence and chromatin differentiate sequence-specific transcription factor binding in the human malaria parasite Plasmodium falciparum”.

T1: SIP2 D1 (Plasmodium falciparum, UniProt C6KSN9 177-235)
T1 sequence: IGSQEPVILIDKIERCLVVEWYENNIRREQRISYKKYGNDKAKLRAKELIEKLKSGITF

T2: HDP1 homeodomain-like (Plasmodium falciparum, UniProt Q8IKH4 2990-3078)
T2 sequence: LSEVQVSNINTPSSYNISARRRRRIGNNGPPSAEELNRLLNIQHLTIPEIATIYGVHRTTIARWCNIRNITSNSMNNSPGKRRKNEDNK

B1: GTGCAC_site10095 (dsDNA)
DNA 1: CTATATATAACCCATGTGCACTTTTTATGTACAATA
DNA 2: TATTGTACATAAAAAGTGCACATGGGTTATATATAG
B2: GTGCAC_site10218 (dsDNA)
DNA 1: GATATATATACATGTGTGCACCATGCAACTTGTTTT
DNA 2: AAAACAAGTTGCATGGTGCACACATGTATATATATC
B3: GTGCAC_negctrl_site631 (dsDNA)
DNA 1: AGAAGGTAAATAATTTACCCATATATATAAATATAT
DNA 2: ATATATTTATATATATGGGTAAATTATTTACCTTCT
B4: GTGCAC_site9436 (dsDNA)
DNA 1: AACGAGCAAGACGGGGTGCACACAAACTAATATGCC
DNA 2: GGCATATTAGTTTGTGTGCACCCCGTCTTGCTCGTT
B5: GTGCAC_site10094 (dsDNA)
DNA 1: TATTAACAAATTTATGTGCACTGAGGACAAATATAT
DNA 2: ATATATTTGTCCTCAGTGCACATAAATTTGTTAATA
B6: GTGCAC_site9533 (dsDNA)
DNA 1: TTTTCTATTTAATTGGTGCACTGATATATACACATA
DNA 2: TATGTGTATATATCAGTGCACCAATTAAATAGAAAA
B7: GTGCAC_site10490 (dsDNA)
DNA 1: TTTATATTTATTGTTGTGCACAGAACCATATTCGTT
DNA 2: AACGAATATGGTTCTGTGCACAACAATAAATATAAA
B8: GTGCAC_site9569 (dsDNA)
DNA 1: TATTTGTATATATGTGTGCACGTATAATCCATTAAA
DNA 2: TTTAATGGATTATACGTGCACACATATATACAAATA
B9: GTGCAC_site9474 (dsDNA)
DNA 1: GCCCCCAAATTATGTGTGCACTTTATATTCCTGAGA
DNA 2: TCTCAGGAATATAAAGTGCACACATAATTTGGGGGC
B10: GTGCAC_site10202 (dsDNA)
DNA 1: AAAATGTAGAAATGGGTGCACACACATATATAATAT
DNA 2: ATATTATATATGTGTGTGCACCCATTTCTACATTTT
B11: GTGCAC_site9736 (dsDNA)
DNA 1: ATATTTTATGTGTTGGTGCACATCTTTATTTAAACT
DNA 2: AGTTTAAATAAAGATGTGCACCAACACATAAAATAT
B12: GTGCAC_site9426 (dsDNA)
DNA 1: ACGTGTATTTATTTAGTGCACTTTATATTTTTTCTT
DNA 2: AAGAAAAAATATAAAGTGCACTAAATAAATACACGT
B13: GTGCAC_site10741 (dsDNA)
DNA 1: AAACAAAACAACTAAGTGCATAAAAATAAAATAAAT
DNA 2: ATTTATTTTATTTTTATGCACTTAGTTGTTTTGTTT
B14: GTGCAC_site10491 (dsDNA)
DNA 1: TAGTGATATAATTATGTGCACTTAATACAGGTCGAT
DNA 2: ATCGACCTGTATTAAGTGCACATAATTATATCACTA
B15: GTGCAC_site10292 (dsDNA)
DNA 1: ATAATATGTTATTAAGTGCATATTAATTATTATTAT
DNA 2: ATAATAATAATTAATATGCACTTAATAACATATTAT
B16: GTGCAC_site9967 (dsDNA)
DNA 1: ACATCGATTTATATTCTGCACTGAAGAAACTACAAC
DNA 2: GTTGTAGTTTCTTCAGTGCAGAATATAAATCGATGT
B17: GTGCAC_site9679 (dsDNA)
DNA 1: TTTCTTTAATATATAGTGCATGTAAATTTTACAATA
DNA 2: TATTGTAAAATTTACATGCACTATATATTAAAGAAA
B18: GTGCAC_site10685 (dsDNA)
DNA 1: TTATATTTCACAAATGTGCACAGATACATATATATA
DNA 2: TATATATATGTATCTGTGCACATTTGTGAAATATAA
B19: GTGCAC_site9541 (dsDNA)
DNA 1: ATGAGTAACATATTTGTGCACATATGGTTATTTTTA
DNA 2: TAAAAATAACCATATGTGCACAAATATGTTACTCAT
B20: GTGCAC_site9965 (dsDNA)
DNA 1: AAGAACAAATATGAGGTGCAACACAATATATTATTA
DNA 2: TAATAATATATTGTGTTGCACCTCATATTTGTTCTT
B21: GTGCAC_site9629 (dsDNA)
DNA 1: ATATCAAATAATTTAGTGCACTTTTTTTTTTCTTTT
DNA 2: AAAAGAAAAAAAAAAGTGCACTAAATTATTTGATAT
B22: GTGCAC_site10017 (dsDNA)
DNA 1: ATATATACTATAATAGTGCATTAAAAAAGTAAAAAT
DNA 2: ATTTTTACTTTTTTAATGCACTATTATAGTATATAT
B23: GTGCAC_site9574 (dsDNA)
DNA 1: ATCATATTTATGTTGGTGCATTATACATAAAGTTTA
DNA 2: TAAACTTTATGTATAATGCACCAACATAAATATGAT
B24: GTGCAC_site10033 (dsDNA)
DNA 1: TTATAAAATTACTTGGTGCATTAGAATATTTCAATA
DNA 2: TATTGAAATATTCTAATGCACCAAGTAATTTTATAA
B25: GTGCAC_site9478 (dsDNA)
DNA 1: ATATTATATTGGATGTTGCACTTAACAAAAGGATAT
DNA 2: ATATCCTTTTGTTAAGTGCAACATCCAATATAATAT
B26: GTGCAC_site9591 (dsDNA)
DNA 1: ACATATTATATATGTGTGCACATATATATATATTTA
DNA 2: TAAATATATATATATGTGCACACATATATAATATGT
B27: GTGCAC_site10284 (dsDNA)
DNA 1: TTCTCCTAATAGTTAGTGCACTACATAACTAAGAAA
DNA 2: TTTCTTAGTTATGTAGTGCACTAACTATTAGGAGAA
B28: GTGCAC_site9829 (dsDNA)
DNA 1: GAACGAAATAAGTGTGTGCACATGTAACCACAAATC
DNA 2: GATTTGTGGTTACATGTGCACACACTTATTTCGTTC
B29: GTGCAC_site9798 (dsDNA)
DNA 1: ATCATATGTATGGTGGTGCATTATGCATGAATTTTA
DNA 2: TAAAATTCATGCATAATGCACCACCATACATATGAT
B30: GTGCAC_site10780 (dsDNA)
DNA 1: TACAGTTCAATGAAGGTGCAATTAATATATAAAATA
DNA 2: TATTTTATATATTAATTGCACCTTCATTGAACTGTA
B31: GTGCAC_site9772 (dsDNA)
DNA 1: TATATTATCAAAATGGTGCAATAATTTCTATATTAT
DNA 2: ATAATATAGAAATTATTGCACCATTTTGATAATATA
B32: GTGCAC_site9796 (dsDNA)
DNA 1: ATATATATATATATAGTGCAAATAAAAAATAGACAA
DNA 2: TTGTCTATTTTTTATTTGCACTATATATATATATAT
B33: GTGCAC_site9920 (dsDNA)
DNA 1: ATAATTATATGATGAGTGCACAATAAAAATATCGTT
DNA 2: AACGATATTTTTATTGTGCACTCATCATATAATTAT

One series deals with T1, SIP2 D1. The series is described as follows: gcPBM; about 25 ug protein; PBS, 1% milk, 0.2 mg/ml BSA, salmon testes DNA, 0.03% Triton X-100. Particulars: tags: N-terminal GST (pGEX-4T-1), kept; label: surface-attached array probe.
As to B1, the binding signal is 10.2 ln median PBM intensity, better of two orientations.

B2: the binding signal is 11.1 ln median PBM intensity, better of two orientations.

Take B3: the binding signal is 6.91 ln median PBM intensity, better of two orientations.

As for B4, the binding signal is 11.8 ln median PBM intensity, better of two orientations.

As to B5, the binding signal was 10.5 ln median PBM intensity, better of two orientations.

With B6, the binding signal was 11.6 ln median PBM intensity, better of two orientations.

B7: the binding signal is 10.4 ln median PBM intensity, better of two orientations.

As to B8, the binding signal was 11.3 ln median PBM intensity, better of two orientations.

In the case of B9, the binding signal was 11.2 ln median PBM intensity, better of two orientations.

Turning to B10, the binding signal is 11.7 ln median PBM intensity, better of two orientations.

As for B11, the binding signal is 10.9 ln median PBM intensity, better of two orientations.

Regarding B12, the binding signal was 10.7 ln median PBM intensity, better of two orientations.

Another series concerns the target T2, HDP1 homeodomain-like. Described as above. Particulars: tags: N-terminal GST (pGEX-4T-1), kept; chain copies: 2; label: surface-attached array probe.
For B1, the binding signal was 10.1 ln median PBM intensity, better of two orientations.

B13: the binding signal was 8.67 ln median PBM intensity, better of two orientations.

Turning to B14, the binding signal was 11.1 ln median PBM intensity, better of two orientations.

For B2, the binding signal was 9.57 ln median PBM intensity, better of two orientations.

On to B3, for which the binding signal is 6.21 ln median PBM intensity, better of two orientations.

Regarding B15, the binding signal was 9.18 ln median PBM intensity, better of two orientations.

As to B16, the binding signal is 7.69 ln median PBM intensity, better of two orientations.

On to B4, for which the binding signal is 9.89 ln median PBM intensity, better of two orientations.

For the molecule B17, the binding signal was 8.12 ln median PBM intensity, better of two orientations.

Turning to B5, the binding signal was 10.3 ln median PBM intensity, better of two orientations.

Take B18: the binding signal is 11.1 ln median PBM intensity, better of two orientations.

For B6, the binding signal is 10.5 ln median PBM intensity, better of two orientations.

B7: the binding signal is 11.1 ln median PBM intensity, better of two orientations.

On to B19, for which the binding signal is 11.1 ln median PBM intensity, better of two orientations.

For the molecule B20, the binding signal was 10.2 ln median PBM intensity, better of two orientations.

As to B21, the binding signal is 10.8 ln median PBM intensity, better of two orientations.

As for B8, the binding signal was 9.32 ln median PBM intensity, better of two orientations.

B22: the binding signal was 9.53 ln median PBM intensity, better of two orientations.

Turning to B23, the binding signal is 10.4 ln median PBM intensity, better of two orientations.

Regarding B9, the binding signal was 9.62 ln median PBM intensity, better of two orientations.

Turning to B24, the binding signal was 11.1 ln median PBM intensity, better of two orientations.

Turning to B25, the binding signal is 8.41 ln median PBM intensity, better of two orientations.

Take B26: the binding signal is 9.98 ln median PBM intensity, better of two orientations.

B27: the binding signal was 11.1 ln median PBM intensity, better of two orientations.

Consider B28, for which the binding signal is 9.93 ln median PBM intensity, better of two orientations.

Regarding B29, the binding signal is 10.4 ln median PBM intensity, better of two orientations.

In the case of B30, the binding signal is 9.1 ln median PBM intensity, better of two orientations.

As to B31, the binding signal was 10 ln median PBM intensity, better of two orientations.

As for B10, the binding signal was 9.58 ln median PBM intensity, better of two orientations.

With B11, the binding signal is 9.88 ln median PBM intensity, better of two orientations.

B32: the binding signal was 10 ln median PBM intensity, better of two orientations.

Take B33: the binding signal is 9.38 ln median PBM intensity, better of two orientations.

For B12, the binding signal is 11.3 ln median PBM intensity, better of two orientations.

The next series deals with AP2-I D3 (Plasmodium falciparum, UniProt Q8IJW6 910-1027). Described as above. Particulars: tags: N-terminal GST (pGEX-4T-1), kept; label: surface-attached array probe.
Take B13: the binding signal is 10.7 ln median PBM intensity, better of two orientations.

B14: the binding signal was 11.1 ln median PBM intensity, better of two orientations.

Turning to B15, the binding signal was 9.72 ln median PBM intensity, better of two orientations.

As to B16, the binding signal was 9.3 ln median PBM intensity, better of two orientations.

In the case of B17, the binding signal was 9.43 ln median PBM intensity, better of two orientations.

As to B18, the binding signal is 10.1 ln median PBM intensity, better of two orientations.

Consider B19, for which the binding signal is 10.4 ln median PBM intensity, better of two orientations.

In the case of B20, the binding signal is 9.55 ln median PBM intensity, better of two orientations.

As to B21, the binding signal is 12 ln median PBM intensity, better of two orientations.

As for B22, the binding signal is 12 ln median PBM intensity, better of two orientations.

In the case of B23, the binding signal is 12.1 ln median PBM intensity, better of two orientations.

With B24, the binding signal was 12.1 ln median PBM intensity, better of two orientations.

On to B25, for which the binding signal is 9.38 ln median PBM intensity, better of two orientations.

Turning to B26, the binding signal was 9.12 ln median PBM intensity, better of two orientations.

B27: the binding signal was 12.4 ln median PBM intensity, better of two orientations.

B28: the binding signal was 9.08 ln median PBM intensity, better of two orientations.

Turning to B29, the binding signal was 12 ln median PBM intensity, better of two orientations.

Take B30: the binding signal was 11.1 ln median PBM intensity, better of two orientations.

In the case of B31, the binding signal is 12 ln median PBM intensity, better of two orientations.

For the molecule B32, the binding signal was 11.2 ln median PBM intensity, better of two orientations.

Turning to B33, the binding signal was 11.2 ln median PBM intensity, better of two orientations.
